In publication PMC4028238 one finds relative binding affinity (IC50 ratio vs BV02) (IC50(BV02)/IC50) data, which are given here for three sequences.

The subject of this series is Influenza A virus hemagglutinin (whole virus as assayed) (Influenza A virus H3N2 A/Texas/1977 (A/Texas/1/77)). Description: competition ELISA. The note with it: PBS, room temperature, […] (0.5-500 nM) […] (5 nM).
Consider “TTCCTCAGCAAAATAGCGGGGCTGAGCAACCGCAATACACTGGTAAAAAGTGCGGTTAAGA [BV37a]”, for which the relative binding affinity (IC50 ratio vs BV02) (IC50(BV02)/IC50) was 0.874.
As to “CCCCCCCCCGCGCTGAGTCCCCCCCCCCCCCCCCCCCACTCAGCGCGCCCCCCCC [BV35b]”, the relative binding affinity (IC50 ratio vs BV02) (IC50(BV02)/IC50) stood at 0.938.
With “TCTCAGCCCCCGCTGAGTCAAAGCGCACCCCCCCCCCCCCCCCTGCGCTTAA [BV37e]”, the relative binding affinity (IC50 ratio vs BV02) (IC50(BV02)/IC50) stood at 0.995.
